Measured values: patent publication US20210221899A1 (published 2021)

Key:
Experiment in all cases: SPR (Biacore T200), 100 nM mAb on NGF chip, similarity to parent mAb
[1] = target: T1, canine NGF (canine, UniProt Q29074 110-229 (pig entry), limits assumed)
T1 construct: The protein was secreted from CHO cells and purified; also called cNGF; canine β-NGF
T1 chain: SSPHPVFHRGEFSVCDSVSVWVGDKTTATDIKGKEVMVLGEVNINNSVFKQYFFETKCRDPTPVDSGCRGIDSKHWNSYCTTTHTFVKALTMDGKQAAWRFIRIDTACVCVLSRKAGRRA
Source text: (§1) The region of an antibody responsible for antigen recognition represents the paratope. A paratope is created by a combination of amino acids in the complementarity determining regions (CDRs) of both the heavy and light chain variable regions. The binding between antibody and antigen is often mediated by side chains of CDR residues with side chains or carbohydrate moieties of the antigen. To help define critical side chains involved in antibody recognition alanine scanning mutagenesis was performed on each CDR residue in both the heavy and light chain, the technique as described by Cunningham and Wells (1989) Science, Vol. 244, Issue 4908, pp. 1081-1085. These mutants were then individually tested for the ability to NGF using the Biacore. […] Values were then compared to the wild type antibodies and are represented in the tables as a percent of wild type binding. The data presented in Tables 4 and 5 below are shown as a “percent similarity score” compared to wild type.
(§2) The mean response unit of four replicates of the parent mAb+/−3 standard deviations was used to generate parameters to define a threshold of response units comprising both the on- and off-rates antibody binding. The percentage of data points for each mutant fell within this threshold was then used to define a “% similarity score”. […] Results from substitution of alanine at each CDR position

[2] = target: T2, rat NGF (rat, UniProt P25427 122-241)
T2 construct: also called rN
Source text: as §1, §2

[3] = target: T3, human NGF (human, UniProt P01138 122-241)
T3 construct: also called human Nerve Growth Factor; hN
T3 chain: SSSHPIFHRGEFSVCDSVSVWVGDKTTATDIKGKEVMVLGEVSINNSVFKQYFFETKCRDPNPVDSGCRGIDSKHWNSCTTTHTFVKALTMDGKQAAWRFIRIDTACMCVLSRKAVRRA
Source text: as §1, §2

T2 sequence (P25427 122-241 limits assumed): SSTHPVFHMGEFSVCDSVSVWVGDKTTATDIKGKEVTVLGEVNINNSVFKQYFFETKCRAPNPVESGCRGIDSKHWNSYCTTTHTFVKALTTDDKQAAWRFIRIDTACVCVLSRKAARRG

B1: can9L12VH_K98A (antibody, V domains shown)
VH: EVQLVESGGDLVKPGGSLRLSCVASGFTFSSHGMHWVRQSPGKGLQWVAVINSGGSSTYYTDAVKGRFTISRDNAKNTVYLQMNSLRAEDTAMYYCAAESVGGWEQLVGPHFDYWGQGTLVIVSS
VL: QSVLTQPTSVSGSLGQRVTISCSGSTNNIGILGASWYQLFPGKAPKLLVYGNGNRPSGVPDRFSGADSGDSVTLTITGLQAEDEADYYCQSFDTTLGAHVFGGGTHLTVL
Percent Similarity Score (KD on cN) [1]: 22.8% | Percent Similarity Score (KD on rN) [2]: 7.92% | Percent Similarity Score (KD on hN) [3]: 8.58%

B2: can9L12VH_S57A (antibody, V domains shown)
VH: EVQLVESGGDLVKPGGSLRLSCVASGFTFSSHGMHWVRQSPGKGLQWVAVINSGGSATYYTDAVKGRFTISRDNAKNTVYLQMNSLRAEDTAMYYCAKESVGGWEQLVGPHFDYWGQGTLVIVSS
VL: QSVLTQPTSVSGSLGQRVTISCSGSTNNIGILGASWYQLFPGKAPKLLVYGNGNRPSGVPDRFSGADSGDSVTLTITGLQAEDEADYYCQSFDTTLGAHVFGGGTHLTVL
Percent Similarity Score (KD on cN) [1]: 89.9% | Percent Similarity Score (KD on rN) [2]: 100% | Percent Similarity Score (KD on hN) [3]: 33.4%

B3: can9L12VH_S31A (antibody, V domains shown)
VH: EVQLVESGGDLVKPGGSLRLSCVASGFTFSAHGMHWVRQSPGKGLQWVAVINSGGSSTYYTDAVKGRFTISRDNAKNTVYLQMNSLRAEDTAMYYCAKESVGGWEQLVGPHFDYWGQGTLVIVSS
VL: QSVLTQPTSVSGSLGQRVTISCSGSTNNIGILGASWYQLFPGKAPKLLVYGNGNRPSGVPDRFSGADSGDSVTLTITGLQAEDEADYYCQSFDTTLGAHVFGGGTHLTVL
Percent Similarity Score (KD on cN) [1]: 100% | Percent Similarity Score (KD on rN) [2]: 100% | Percent Similarity Score (KD on hN) [3]: 99.9%

B4: can9L12VH_V101A (antibody, V domains shown)
VH: EVQLVESGGDLVKPGGSLRLSCVASGFTFSSHGMHWVRQSPGKGLQWVAVINSGGSSTYYTDAVKGRFTISRDNAKNTVYLQMNSLRAEDTAMYYCAKESAGGWEQLVGPHFDYWGQGTLVIVSS
VL: QSVLTQPTSVSGSLGQRVTISCSGSTNNIGILGASWYQLFPGKAPKLLVYGNGNRPSGVPDRFSGADSGDSVTLTITGLQAEDEADYYCQSFDTTLGAHVFGGGTHLTVL
Percent Similarity Score (KD on cN) [1]: 13.6% | Percent Similarity Score (KD on rN) [2]: 4.27% | Percent Similarity Score (KD on hN) [3]: 5.29%

B5: can9L12VH_T58A (antibody, V domains shown)
VH: EVQLVESGGDLVKPGGSLRLSCVASGFTFSSHGMHWVRQSPGKGLQWVAVINSGGSSAYYTDAVKGRFTISRDNAKNTVYLQMNSLRAEDTAMYYCAKESVGGWEQLVGPHFDYWGQGTLVIVSS
VL: QSVLTQPTSVSGSLGQRVTISCSGSTNNIGILGASWYQLFPGKAPKLLVYGNGNRPSGVPDRFSGADSGDSVTLTITGLQAEDEADYYCQSFDTTLGAHVFGGGTHLTVL
Percent Similarity Score (KD on cN) [1]: 100% | Percent Similarity Score (KD on rN) [2]: 99.9% | Percent Similarity Score (KD on hN) [3]: 100%

B6: can9L12VH_N52A (antibody, V domains shown)
VH: EVQLVESGGDLVKPGGSLRLSCVASGFTFSSHGMHWVRQSPGKGLQWVAVIASGGSSTYYTDAVKGRFTISRDNAKNTVYLQMNSLRAEDTAMYYCAKESVGGWEQLVGPHFDYWGQGTLVIVSS
VL: QSVLTQPTSVSGSLGQRVTISCSGSTNNIGILGASWYQLFPGKAPKLLVYGNGNRPSGVPDRFSGADSGDSVTLTITGLQAEDEADYYCQSFDTTLGAHVFGGGTHLTVL
Percent Similarity Score (KD on cN) [1]: 85.8% | Percent Similarity Score (KD on rN) [2]: 19.7% | Percent Similarity Score (KD on hN) [3]: 38.2%

B7: can9L12VH_L107A (antibody, V domains shown)
VH: EVQLVESGGDLVKPGGSLRLSCVASGFTFSSHGMHWVRQSPGKGLQWVAVINSGGSSTYYTDAVKGRFTISRDNAKNTVYLQMNSLRAEDTAMYYCAKESVGGWEQAVGPHFDYWGQGTLVIVSS
VL: QSVLTQPTSVSGSLGQRVTISCSGSTNNIGILGASWYQLFPGKAPKLLVYGNGNRPSGVPDRFSGADSGDSVTLTITGLQAEDEADYYCQSFDTTLGAHVFGGGTHLTVL
Percent Similarity Score (KD on cN) [1]: 5.45% | Percent Similarity Score (KD on rN) [2]: 2% | Percent Similarity Score (KD on hN) [3]: 1.82%

B8: can9L12VH_T28A (antibody, V domains shown)
VH: EVQLVESGGDLVKPGGSLRLSCVASGFAFSSHGMHWVRQSPGKGLQWVAVINSGGSSTYYTDAVKGRFTISRDNAKNTVYLQMNSLRAEDTAMYYCAKESVGGWEQLVGPHFDYWGQGTLVIVSS
VL: QSVLTQPTSVSGSLGQRVTISCSGSTNNIGILGASWYQLFPGKAPKLLVYGNGNRPSGVPDRFSGADSGDSVTLTITGLQAEDEADYYCQSFDTTLGAHVFGGGTHLTVL
Percent Similarity Score (KD on cN) [1]: 100% | Percent Similarity Score (KD on rN) [2]: 100% | Percent Similarity Score (KD on hN) [3]: 96.6%

B9: can9L12VH_S53A (antibody, V domains shown)
VH: EVQLVESGGDLVKPGGSLRLSCVASGFTFSSHGMHWVRQSPGKGLQWVAVINAGGSSTYYTDAVKGRFTISRDNAKNTVYLQMNSLRAEDTAMYYCAKESVGGWEQLVGPHFDYWGQGTLVIVSS
VL: QSVLTQPTSVSGSLGQRVTISCSGSTNNIGILGASWYQLFPGKAPKLLVYGNGNRPSGVPDRFSGADSGDSVTLTITGLQAEDEADYYCQSFDTTLGAHVFGGGTHLTVL
Percent Similarity Score (KD on cN) [1]: 100% | Percent Similarity Score (KD on rN) [2]: 99.9% | Percent Similarity Score (KD on hN) [3]: 100%

B10: can9L12VH_S56A (antibody, V domains shown)
VH: EVQLVESGGDLVKPGGSLRLSCVASGFTFSSHGMHWVRQSPGKGLQWVAVINSGGASTYYTDAVKGRFTISRDNAKNTVYLQMNSLRAEDTAMYYCAKESVGGWEQLVGPHFDYWGQGTLVIVSS
VL: QSVLTQPTSVSGSLGQRVTISCSGSTNNIGILGASWYQLFPGKAPKLLVYGNGNRPSGVPDRFSGADSGDSVTLTITGLQAEDEADYYCQSFDTTLGAHVFGGGTHLTVL
Percent Similarity Score (KD on cN) [1]: 96.8% | Percent Similarity Score (KD on rN) [2]: 96% | Percent Similarity Score (KD on hN) [3]: 40.5%

B11: can9L12VH_Q106A (antibody, V domains shown)
VH: EVQLVESGGDLVKPGGSLRLSCVASGFTFSSHGMHWVRQSPGKGLQWVAVINSGGSSTYYTDAVKGRFTISRDNAKNTVYLQMNSLRAEDTAMYYCAKESVGGWEALVGPHFDYWGQGTLVIVSS
VL: QSVLTQPTSVSGSLGQRVTISCSGSTNNIGILGASWYQLFPGKAPKLLVYGNGNRPSGVPDRFSGADSGDSVTLTITGLQAEDEADYYCQSFDTTLGAHVFGGGTHLTVL
Percent Similarity Score (KD on cN) [1]: 100% | Percent Similarity Score (KD on rN) [2]: 99.9% | Percent Similarity Score (KD on hN) [3]: 100%

B12: can9L12VH_P110A (antibody, V domains shown)
VH: EVQLVESGGDLVKPGGSLRLSCVASGFTFSSHGMHWVRQSPGKGLQWVAVINSGGSSTYYTDAVKGRFTISRDNAKNTVYLQMNSLRAEDTAMYYCAKESVGGWEQLVGAHFDYWGQGTLVIVSS
VL: QSVLTQPTSVSGSLGQRVTISCSGSTNNIGILGASWYQLFPGKAPKLLVYGNGNRPSGVPDRFSGADSGDSVTLTITGLQAEDEADYYCQSFDTTLGAHVFGGGTHLTVL
Percent Similarity Score (KD on cN) [1]: 6.48% | Percent Similarity Score (KD on rN) [2]: 2.6% | Percent Similarity Score (KD on hN) [3]: 2.1%

B13: can9L12VH_S30A (antibody, V domains shown)
VH: EVQLVESGGDLVKPGGSLRLSCVASGFTFASHGMHWVRQSPGKGLQWVAVINSGGSSTYYTDAVKGRFTISRDNAKNTVYLQMNSLRAEDTAMYYCAKESVGGWEQLVGPHFDYWGQGTLVIVSS
VL: QSVLTQPTSVSGSLGQRVTISCSGSTNNIGILGASWYQLFPGKAPKLLVYGNGNRPSGVPDRFSGADSGDSVTLTITGLQAEDEADYYCQSFDTTLGAHVFGGGTHLTVL
Percent Similarity Score (KD on cN) [1]: 94.7% | Percent Similarity Score (KD on rN) [2]: 99.9% | Percent Similarity Score (KD on hN) [3]: 31.2%

B14: can9L12VH_S100A (antibody, V domains shown)
VH: EVQLVESGGDLVKPGGSLRLSCVASGFTFSSHGMHWVRQSPGKGLQWVAVINSGGSSTYYTDAVKGRFTISRDNAKNTVYLQMNSLRAEDTAMYYCAKEAVGGWEQLVGPHFDYWGQGTLVIVSS
VL: QSVLTQPTSVSGSLGQRVTISCSGSTNNIGILGASWYQLFPGKAPKLLVYGNGNRPSGVPDRFSGADSGDSVTLTITGLQAEDEADYYCQSFDTTLGAHVFGGGTHLTVL
Percent Similarity Score (KD on cN) [1]: 76.2% | Percent Similarity Score (KD on rN) [2]: 51.6% | Percent Similarity Score (KD on hN) [3]: 42.1%
